Here are results for one substance from publication PMC6098094.

Common to all, as to test: two-hybrid; quantitative yeast two-hybrid, para-nitrophenyl-alpha-galactoside assay; interaction strength as percentage of wildtype GAL4BD-UBXD1; three independent experiments with five yeast transformands per condition
Assay [1] deals with Gal4BD-UBXD1ΔPUB.
For assay [2], the target named is Gal4BD-UBXD1ΔUBX.
Assay [3] concerns the target Gal4BD-UBXD1ΔVIM.

“Gal4AD-p97 (from UniProt P55072 1-806) (natural protein)”: the interaction strength as percentage of wildtype GAL4BD-UBXD1 (% of wildtype GAL4BD-UBXD1) in assay [1] was 13.8; in assay [2], 29.2; in assay [3] it was 8.1.
